Assay results: US20120219567A1 (Biogen, published 2012)

T1: AP-Nogo-66 (UniProt Q9NQC3 1055-1120)
T1 construct: domain: Nogo-66; also called AP-Ng-66; Nogo-66 ligand; not shown: alkaline phosphatase (AP) moiety
T1 sequence (looked up): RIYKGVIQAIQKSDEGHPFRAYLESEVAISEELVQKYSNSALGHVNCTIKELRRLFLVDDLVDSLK

B1: human NgR mutant 158, 160 (mutated to alanine) (receptor)
chain: CPGACVCYNEPKVTTSCPQQGLQAVPVGIPAASQRIFLHGNRISHVPAASFRACRNLTILWLHSNVLARIDAAAFTGLALLEQLDLSDNAQLRSVDPATFHGLGRLHTLHLDRCGLQELGPGLFRGLAALQALALQDNALQALPDDTFRDLGNLTHLFLHGNRISSVPERAFRGLHSLDRLLLHQNRVAHVHPHAFRDLGRLMTLYLFANNLSALPTEALAPLRALQYLRLNDNPWVCDCRARPLWAWLQKFRGSSSEVPCSLPQRLAGRDLKRLAANDLQGCAVATGPYHPIWTGRATDEEPLGLPKCCQPDAADKASVLEPGRPASAGNALKGRVPPGDSPPGNGSGPRHINDSPFGTLPGSAEPPLTAVRPEGSEPPGFPTSGPRRRPGCSRKNRTRSHCRLGQAGSGGGGTGDSE
B2: human NgR mutant 211, 213, 237, 256, 259, 284 (mutated to alanine) (receptor)
chain: CPGACVCYNEPKVTTSCPQQGLQAVPVGIPAASQRIFLHGNRISHVPAASFRACRNLTILWLHSNVLARIDAAAFTGLALLEQLDLSDNAQLRSVDPATFHGLGRLHTLHLDRCGLQELGPGLFRGLAALQYLYLQDNALQALPDDTFRDLGNLTHLFLHGNRISSVPERAFRGLHSLDRLLLHANAVAHVHPHAFRDLGRLMTLYLFANALSALPTEALAPLRALQYLALNANPWVCDCRARPLWAWLQKFRGSSSAVPCSLPQRLAGRDLKRLAANDLQGCAVATGPYHPIWTGRATDEEPLGLPKCCQPDAADKASVLEPGRPASAGNALKGRVPPGDSPPGNGSGPRHINDSPFGTLPGSAEPPLTAVRPEGSEPPGFPTSGPRRRPGCSRKNRTRSHCRLGQAGSGGGGTGDSE
B3: human NgR mutant 189, 191, 211, 213 (mutated to alanine) (receptor)
chain: CPGACVCYNEPKVTTSCPQQGLQAVPVGIPAASQRIFLHGNRISHVPAASFRACRNLTILWLHSNVLARIDAAAFTGLALLEQLDLSDNAQLRSVDPATFHGLGRLHTLHLDRCGLQELGPGLFRGLAALQYLYLQDNALQALPDDTFRDLGNLTHLFLHGNAIASVPERAFRGLHSLDRLLLHANAVAHVHPHAFRDLGRLMTLYLFANNLSALPTEALAPLRALQYLRLNDNPWVCDCRARPLWAWLQKFRGSSSEVPCSLPQRLAGRDLKRLAANDLQGCAVATGPYHPIWTGRATDEEPLGLPKCCQPDAADKASVLEPGRPASAGNALKGRVPPGDSPPGNGSGPRHINDSPFGTLPGSAEPPLTAVRPEGSEPPGFPTSGPRRRPGCSRKNRTRSHCRLGQAGSGGGGTGDSE
B4: human NgR mutant 111, 113, 114 (mutated to alanine) (receptor)
chain: CPGACVCYNEPKVTTSCPQQGLQAVPVGIPAASQRIFLHGNRISHVPAASFRACRNLTILWLHSNVLARIDAAAFTGLALLEQLALAANAQLRSVDPATFHGLGRLHTLHLDRCGLQELGPGLFRGLAALQYLYLQDNALQALPDDTFRDLGNLTHLFLHGNRISSVPERAFRGLHSLDRLLLHQNRVAHVHPHAFRDLGRLMTLYLFANNLSALPTEALAPLRALQYLRLNDNPWVCDCRARPLWAWLQKFRGSSSEVPCSLPQRLAGRDLKRLAANDLQGCAVATGPYHPIWTGRATDEEPLGLPKCCQPDAADKASVLEPGRPASAGNALKGRVPPGDSPPGNGSGPRHINDSPFGTLPGSAEPPLTAVRPEGSEPPGFPTSGPRRRPGCSRKNRTRSHCRLGQAGSGGGGTGDSE
B5: human NgR mutant 182, 186 (mutated to alanine) (receptor)
chain: CPGACVCYNEPKVTTSCPQQGLQAVPVGIPAASQRIFLHGNRISHVPAASFRACRNLTILWLHSNVLARIDAAAFTGLALLEQLDLSDNAQLRSVDPATFHGLGRLHTLHLDRCGLQELGPGLFRGLAALQYLYLQDNALQALPDDTFRDLGNLTALFLAGNRISSVPERAFRGLHSLDRLLLHQNRVAHVHPHAFRDLGRLMTLYLFANNLSALPTEALAPLRALQYLRLNDNPWVCDCRARPLWAWLQKFRGSSSEVPCSLPQRLAGRDLKRLAANDLQGCAVATGPYHPIWTGRATDEEPLGLPKCCQPDAADKASVLEPGRPASAGNALKGRVPPGDSPPGNGSGPRHINDSPFGTLPGSAEPPLTAVRPEGSEPPGFPTSGPRRRPGCSRKNRTRSHCRLGQAGSGGGGTGDSE
B6: human NgR mutant 211, 213 (mutated to alanine) (receptor)
chain: CPGACVCYNEPKVTTSCPQQGLQAVPVGIPAASQRIFLHGNRISHVPAASFRACRNLTILWLHSNVLARIDAAAFTGLALLEQLDLSDNAQLRSVDPATFHGLGRLHTLHLDRCGLQELGPGLFRGLAALQYLYLQDNALQALPDDTFRDLGNLTHLFLHGNRISSVPERAFRGLHSLDRLLLHANAVAHVHPHAFRDLGRLMTLYLFANNLSALPTEALAPLRALQYLRLNDNPWVCDCRARPLWAWLQKFRGSSSEVPCSLPQRLAGRDLKRLAANDLQGCAVATGPYHPIWTGRATDEEPLGLPKCCQPDAADKASVLEPGRPASAGNALKGRVPPGDSPPGNGSGPRHINDSPFGTLPGSAEPPLTAVRPEGSEPPGFPTSGPRRRPGCSRKNRTRSHCRLGQAGSGGGGTGDSE
B7: human NgR mutant 111, 113, 114, 138 (mutated to alanine) (receptor)
chain: CPGACVCYNEPKVTTSCPQQGLQAVPVGIPAASQRIFLHGNRISHVPAASFRACRNLTILWLHSNVLARIDAAAFTGLALLEQLALAANAQLRSVDPATFHGLGRLHTLHLARCGLQELGPGLFRGLAALQYLYLQDNALQALPDDTFRDLGNLTHLFLHGNRISSVPERAFRGLHSLDRLLLHQNRVAHVHPHAFRDLGRLMTLYLFANNLSALPTEALAPLRALQYLRLNDNPWVCDCRARPLWAWLQKFRGSSSEVPCSLPQRLAGRDLKRLAANDLQGCAVATGPYHPIWTGRATDEEPLGLPKCCQPDAADKASVLEPGRPASAGNALKGRVPPGDSPPGNGSGPRHINDSPFGTLPGSAEPPLTAVRPEGSEPPGFPTSGPRRRPGCSRKNRTRSHCRLGQAGSGGGGTGDSE
B8: human NgR mutant 182, 186, 158, 160 (mutated to alanine) (receptor)
chain: CPGACVCYNEPKVTTSCPQQGLQAVPVGIPAASQRIFLHGNRISHVPAASFRACRNLTILWLHSNVLARIDAAAFTGLALLEQLDLSDNAQLRSVDPATFHGLGRLHTLHLDRCGLQELGPGLFRGLAALQALALQDNALQALPDDTFRDLGNLTALFLAGNRISSVPERAFRGLHSLDRLLLHQNRVAHVHPHAFRDLGRLMTLYLFANNLSALPTEALAPLRALQYLRLNDNPWVCDCRARPLWAWLQKFRGSSSEVPCSLPQRLAGRDLKRLAANDLQGCAVATGPYHPIWTGRATDEEPLGLPKCCQPDAADKASVLEPGRPASAGNALKGRVPPGDSPPGNGSGPRHINDSPFGTLPGSAEPPLTAVRPEGSEPPGFPTSGPRRRPGCSRKNRTRSHCRLGQAGSGGGGTGDSE
B9: human NgR mutant 182, 186, 210 (mutated to alanine) (receptor)
chain: CPGACVCYNEPKVTTSCPQQGLQAVPVGIPAASQRIFLHGNRISHVPAASFRACRNLTILWLHSNVLARIDAAAFTGLALLEQLDLSDNAQLRSVDPATFHGLGRLHTLHLDRCGLQELGPGLFRGLAALQYLYLQDNALQALPDDTFRDLGNLTALFLAGNRISSVPERAFRGLHSLDRLLLAQNRVAHVHPHAFRDLGRLMTLYLFANNLSALPTEALAPLRALQYLRLNDNPWVCDCRARPLWAWLQKFRGSSSEVPCSLPQRLAGRDLKRLAANDLQGCAVATGPYHPIWTGRATDEEPLGLPKCCQPDAADKASVLEPGRPASAGNALKGRVPPGDSPPGNGSGPRHINDSPFGTLPGSAEPPLTAVRPEGSEPPGFPTSGPRRRPGCSRKNRTRSHCRLGQAGSGGGGTGDSE
B10: human NgR mutant 232, 234 (mutated to alanine) (receptor)
chain: CPGACVCYNEPKVTTSCPQQGLQAVPVGIPAASQRIFLHGNRISHVPAASFRACRNLTILWLHSNVLARIDAAAFTGLALLEQLDLSDNAQLRSVDPATFHGLGRLHTLHLDRCGLQELGPGLFRGLAALQYLYLQDNALQALPDDTFRDLGNLTHLFLHGNRISSVPERAFRGLHSLDRLLLHQNRVAHVHPHAFRDLGRLMTLALAANNLSALPTEALAPLRALQYLRLNDNPWVCDCRARPLWAWLQKFRGSSSEVPCSLPQRLAGRDLKRLAANDLQGCAVATGPYHPIWTGRATDEEPLGLPKCCQPDAADKASVLEPGRPASAGNALKGRVPPGDSPPGNGSGPRHINDSPFGTLPGSAEPPLTAVRPEGSEPPGFPTSGPRRRPGCSRKNRTRSHCRLGQAGSGGGGTGDSE
B11: human NgR mutant 171, 172, 175, 176, 196, 199, 220, 223, 224, 250 (mutated to alanine) (receptor)
chain: CPGACVCYNEPKVTTSCPQQGLQAVPVGIPAASQRIFLHGNRISHVPAASFRACRNLTILWLHSNVLARIDAAAFTGLALLEQLDLSDNAQLRSVDPATFHGLGRLHTLHLDRCGLQELGPGLFRGLAALQYLYLQDNALQALPAATFAALGNLTHLFLHGNRISSVPEAAFAGLHSLDRLLLHQNRVAHVHPAAFAALGRLMTLYLFANNLSALPTEALAPLAALQYLRLNDNPWVCDCRARPLWAWLQKFRGSSSEVPCSLPQRLAGRDLKRLAANDLQGCAVATGPYHPIWTGRATDEEPLGLPKCCQPDAADKASVLEPGRPASAGNALKGRVPPGDSPPGNGSGPRHINDSPFGTLPGSAEPPLTAVRPEGSEPPGFPTSGPRRRPGCSRKNRTRSHCRLGQAGSGGGGTGDSE
notes: Label runs over two printed rows (r20c1 and r21c1)

molecular target: T1, AP-Nogo-66; experiment: AP-ligand binding to transfected COS-7 cells
Protocol: In order to probe the NgR domains that interact with Aβ and Nogo-66, a strategy based on the crystal structure of NgR was employed. A number of human NgR surface-accessible residues were mutated to Ala either individually or as groups of adjacent residues (Table 3), and resultant ligand binding characteristics were assessed. The ligand concentrations were AP, 30 nM, AP-Nogo-66, 5 nM, AP-Aβ(1-28), 50 nM. NgR mutagenesis has been previously described. Hu et al., J Neurosci 25:5298-5304 (2005); Fournier et al., J Neurosci 23:1416-1423 (2003). The expression of each mutant NgR protein was verified by immunohistochemical detection at the surface of cells transfected with expression vector (FIG. 2a). Bound AP was stained and measured using NIH image software. Mutants of human NgR were detected on the surface of transfected COS-7 immunofluorescently. For each of the mutants with altered binding characteristics, expression of immunoreactive NgR protein with electrophoretic mobility similar to wild type was also confirmed by immunoblot (FIG. 2c). Whole COS-7 cell lysates expressing NgR mutants were subjected to SDS-PAGE and blotted with anti-NgR antibodies. The mobility of each mutant was indistinguishable from wild type NgR, except for the mutations in N-linked glycosylation sites (N82 and N179). The binding of both AP-Aβ(1-28) and AP-Nogo-66 ligands to cells expressing this collection of NgR mutant proteins was assessed at concentrations equal to the predetermined Kd's of the ligands (FIG. 2b, d).

Binding result, no binding (tested: 5 nM):
B1, B2, B3, B4, B5, B6, B7, B8, B9, B10, B11
